Assay results published in article PMC8726015.

How the values were obtained:
Experiment in all cases: purified protein
Settings in all cases: ATP; Mg2+
purified protein [1] = substrate: CC(C)(CO)[C@@H](O)C(=O)NCCCC(=O)O; type: biochemical, Drosophila melanogaster
purified protein [2] = substrate: CC(C)(CO)[C@@H](O)C(=O)NCCC(=O)NCCS; type: biochemical, Drosophila melanogaster
purified protein [3] = substrate: CC(C)(CO)[C@@H](O)C(=O)NCCCC(=O)O; type: biochemical, Homo sapiens
purified protein [4] = substrate: CC(C)(CO)[C@@H](O)C(=O)NCCC(=O)NCCS; type: biochemical, Homo sapiens

Protein	K0.5 (purified protein [1])	kcat (purified protein [1])	kcat/Km (purified protein [1])	K0.5 (purified protein [2])	K0.5 (purified protein [3])	kcat (purified protein [3])	kcat/Km (purified protein [3])	K0.5 (purified protein [4])	kcat (purified protein [4])	kcat/Km (purified protein [4])
fruit fly pantothenate kinase dPANK/FblD (Fumble D) (Drosophila melanogaster) (protein) MPWFGMDIGGTLTKLVYFEPKDITPDEQDREAGILRNIRRYLTKNSAYGKTGHRDTHLQMDNVEIRKRRGSLHFIRFQTTDMGNFLSLAKQKGMAELVTTVCATGGGAFKFEQDFRDQVNMKLAKFDELDTLIKGILFADLHNRTECYYYENARDILKSEKQQFNFSQPFPFILVNVGSGVSILAVYGPDNYKRISGTSLGGGTFLGLCCLLTGCTSFEEAIQLATKGDNRKVDKLVKDIYGGDYNRFGLPGDLVASSFGQMHLNDKRVSVSREDLANATLVTITNNIGSIARMCALNEKIDRVVFVGNFLRVNPISMKLLAYAMEFWSNGTMKGLFLEHEGYFGALGCLLQFNGELAAALNDGVEHSIHTESDSASEAAQTSSTADEPPEKAPTSKHSTR	82.2 ± 12.4 µM	2.72 ± 0.5 s⁻¹	35600 ± 8400 M⁻¹ s⁻¹	28.9 ± 13.0 µM						
human pantothenate kinase hPANK3 (Homo sapiens) (protein) PWFGMDIGGTLVKLSYFEPIDITAEEEQEEVESLKSIRKYLTSNVAYGSTGIRDVHLELKDLTLFGRRGNLHFIRFPTQDLPTFIQMGRDKNFSTLQTVLCATGGGAYKFEKDFRTIGNLHLHKLDELDCLVKGLLYIDSVSFNGQAECYYFANASEPERCQKMPFNLDDPYPLLVVNIGSGVSILAVHSKDNYKRVTGTSLGGGTFLGLCSLLTGCESFEEALEMASKGDSTQADKLVRDIYGGDYERFGLPGWAVASSFGNMIYKEKRESVSKEDLARATLVTITNNIGSVARMCAVNEKINRVVFVGNFLRVNTLSMKLLAYALDYWSKGQLKALFLEHEGYFGAVGALLGLPNFS					36.2 ± 2.1 µM	0.67 ± 0.02 s⁻¹	19500 ± 1600 M⁻¹ s⁻¹	8.05 ± 1.87 µM	0.41 ± 0.13 s⁻¹	57600 ± 24600 M⁻¹ s⁻¹
